Results taken from the domain aggregation screens of Martell et al. (2025).

Experiment: soluble fraction after stress (log2 fold change); higher = more stays soluble; pooled small domains, quantitative proteomics
Conditions: stress: pH 4
Summary of the method: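 With high-throughput quantitative proteomics, pooled custom libraries of small protein domains were measured after pH 4 stress. Each domain's soluble amount after the stress gives a fold change taken as aggregation propensity. Higher log2 values mean more of the domain stayed soluble.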

Sequence | soluble fraction (log2)
HMISESLLDEIPGLGETRRNSLLREFGSVAMIRKASAEEIASRVRGIGAEFAAAIHDFLQTH | 0.0801
HMISFHEYLTQLLDEKGLTKAQVITDSNIQKNYGYQIFDGSKTPSRDKVIAIALAMQLTLDEANRLLHLSN | -0.618
HMISFTDLEHIEKMIENVLYTKTPLNLPPTDAKIRKIEHQIARRYGLNSESFGDEPRRFVVVYPNEERE | 0.0997
HMISKAQLFSEEELTELYRATGYQLENDPEIHREQFEALQAVRAKIEYAVPDVQEKLEQEQNLGQQ | -1
HMISKRFQVDEENSNNRVDIFLANNLDSISRGIVQQLILDGKVLVNGETVKRNHLLKTNDEVDISFEI | 0.0466
HMISRDPYDAGAIKRHFSASGLFSSKELAHYLGKSVSTAKNVLSDLQQQGIVEMVGQGPATKYRFI | 0.285
HMISSRDAAVIGLVENIQRAQLNAIDESSGFKHLMETYNLESKEIALLVGKSRSYVSNSLRLSK | -0.235
HMISTVFYVDVKGEVHHPGVYQMKAENRVKDLIEAAGGFTPLADDQKLNLAQLLEDQMVIVVPKKGEEV | -0.221
HMISVTNRTGTGLNDVKVEVFPVGRQMVFSATVFRVESEATNRFSLGELRGSDGTPFNQRVHRPESI | -0.07
HMITAEQENILFEKASDDISNNIINKGIWTKAYSQAGGDESKQKAIYIDLLVNYYKMLIKAGEEFEDI | -2.05
HMITALLPGTVLIREFDGRDYHVTVATDGRFEMDGHKYPSLSAVAKHITGTQWSGPAFFGLN | -0.0323
HMITASNYFIEVERIGIETLPETLKKGHDLVVKSTSNGTNWANYQTSEGIKKVIDLYFQKLNEYANTV | -1.57
HMITDSSEIEAMVDALVKENPGQAEQYKDGNMKVAGWFIGQIMKVSKGKANPQLVGDLLKKKLG | ≥ 0.43
HMITERVPVPDLTGMPLMEAIKTLNSSKLQYQVVGSVIEGDENRIIDQTPKPDIMVSEKSIVLLYLETYRG | -0.338
HMITIDADTGKRVYTRKEVADLVGASTQSIRLWEDAGAIPASVRDEGGYRYWYEEDLEAIKAYAS | -0.411
HMITKAIELAEEAEKETVWLGVWEHNHPAQKFYQSLGFVKTDEHDFYMGNERHTDYTMTKQLK | -0.958
HMITLKKRRQEAILEIIEKYDLSTQDELLQKLKDSGFDATQATVSRDIKELRLVKTMGANGQYKYAVT | -0.735
HMITMADKIDTALSEMAANNEKINVSQVAKRLGISNSAIYKFNPEKIPDIQTAQKRQKHKAEAIAVGTEN | 0.0504
HMITMWYYKKDGNIIGPASARKIASMRELGIITDSTPVSRKRNAKNWETFGGLSEKINLESSQWD | 0.0852
HMITNEDINIKKLLVVMKDTPLSANEIMDKLNIKSKETLRNMYLDPAIKKGLINLTIPDKPTSKNQKYYK | 0.22
HMITNESEIERIVEAIISKNPESIAQYRSGITKVLGFLVGQVMKETKGRANPALVNRIIISKME | 0.242
HMITSELALVKLVVKGANRVEALRVAETFRARALDVTLSSFVFELTGKPSKLDAFIGLMRSLGDTEILKR | -1.02
HMIVEIVPSALHGERVDRIVAFILDVSRSVASGLVERGAVHVDGSVETSGKVRLVEGQEVSVDPSQVPG | -0.528
HMIVNEQEQTFIKAMRDDDFNTILELKMKGYQPSDNVLKSLQPDISSTTFIAAAKIFQMERMLK | ≥ 0.43
HMIVSVPNVRGMGESKAAAALQNRGLLVSIDYESSTSASQGEVIRQSISPGTEVTKGSSITIIIAVSPN | -0.0228
HMIVVMQPGATKEQVQAVIDRVAEFGFQTKLAPGAERMVIGVVGSPLPDTLKEALERLPGVEEVIRVSKR | -0.0989

Sequence | soluble fraction (log2)
HMIVVTSPQVTDERIAEIVAFIEKHGVQAHVSRGTDRTVIGIIGKADPVLAEHLRSMQGVENVIKIS | -0.126
HMIYKLTLLRDLPEAKAGFDFYLRGGLASHDGEEWFSWVTREPIYARLYWLYVEKREEWVLVEETDI | -2.47
HMIYMIDPNDEIAVKLDEIYQRYLNRTIDPEGLIFFYNQIRNAQMGYSDVEKRILESPEYVSIPK | -1.23
HMIYQNVINLLKNRLNSSIYNIGDLLPSEKELAEHYDVSRNTLRKALKTLEEEGMIERRHGSGTYLRNK | 0.0262
HMIYWGTMVDKIYEVLSLAGKPLSLMEIYQQVKVFFPNSTKSSIEASMRLDARHRFKYDVEGHVYSLVD | -0.368
HMIYYTEEELVKRYIDFSNYLGKKEGASDVDFKKYAVEFGIPSRDHYNRKFITLFNLKIKAGYKPIRH | -1.13
HMKAAQDQDQAATLLQKATGVNQDQAKLAATVLFKEQSVTPIRQAIASGDYYQAYQDAKSLQQQ | 0.22
HMKADIEQVQRAFDTLDPKNQQLVLDAMKAATAELDPNSDQFKTNTEFINDNQKALDRHAKAS | 0.0627
HMKAGAVFNEGDVLYPKIGGLKLMAAAGEGGKVVATLAKTDEMIYMGEEQSGFVKVESGSGSGWVKKILVA | 0.202
HMKAGEDAVQKAVLEAVAESAAAVADYKAGSERALNFIVGKVMKKTRGKASAAEVHRLVREEVDR | 0.079
HMKAILHQESRSGFANATVIGGLDKFLDTNWNQLSKYIKKIETPYSDRSLEDRKIWISTILGILSTEI | 0.136
HMKALHEEIAEKIQEQILRSNLAPGDKLDTELELAARYGVSRSTIRQALIQLESAGLIDRLHGRGTFVAD | 0.029
HMKAPDSQYKPLTDFQTDASFQKLDAYLRNRYPAMLANAVVYDVLRTPDAISYRVNYQVDNKMITINAAVT | 0.157
HMKAPLTFVIEGKEYEAFDQYKTGAELKQLAGIPLDTELFLSISKPYQDELIENEKQVNLARPETEYFFVK | -0.494
HMKAQTVPQFVGMTMTEAEEKASELGITLIEGAVVDSVEPKDTILTQDVDEGTEITGKMEIMVTISS | -0.352
HMKARLRRVFQIYYGDAYSIMKALKETFPLQTIVHEPRTNSIVVDTPDEETATKIGDVVSAL | -0.563
HMKDANIQIGKRLREARLNMNLEKSEIADVLGVTVEHYRKLEAGVMGISVDKVLTLYHKYGIDPTYLITG | -0.712
HMKDEGSLKVIGQMVVIGIPQSEAKRFANTYTVAQIRAALQYTQKRSEDKNASKLENVAAYFRQALVRNWG | ≥ 0.43
HMKDHKSKWMAKTELDSIAKNLSKKHAISLDYEEDGTRFYAGGQSPLGIGRLFTVFVAPRNGHWSDQLR | -0.0435
HMKDLIGEAKAKELALGHAKLSASDVTFIHVELDWENGRRVYDVEFYSGAKEYDYEIDAKTGEIVSFDY | 0.00222
HMKDLQHLVGEKGTTVTPLRPSGIALIKGSRYDVVSEGSFIQQGVAVEVIKVEGRRVVVSPLQED | -0.0748
HMKDLSMPDVMGSSLNDAKKALTELGIMDITVRYVESGSSEGSIVGMEPPAGSKFAADGKVVLQVSSGS | 0.0083
HMKDMKISTQNILKELATNYPDQTAFRKNVIESTAKSMGYTGKDFYPMLTAETRVKIGTYDLSALLQTV | -0.197
HMKDPSFELMSVAESFYRSGNVDHAVYALEKYLEVYADGDYTDRAHDLLSQARKGLTYPHGYPPLQI | -1.33
HMKDRDISNAVLNILSKDSDHNYNYKQIASVLGVKDPFVRKRIVSVLAQLTKNGQLEEISRGKYQIKN | -0.694
HMKDRNISSSVLEILSKDPDHTYNYKQIAALLGVKDAFIRKRIVTLLAQLAKDGHLDEISRGKYQIK | -0.0199

Sequence | soluble fraction (log2)
HMKDVVAPMSGRVVRLMVAAGDEVVKRQALVVVEAMKMENVLTAPKEGRIKKVPVREGMTVEVGQTLVSFE | -0.274
HMKDYKSALQELIQSGDKRVISYHTLKETGPSHNREFEAAVKLDGNIILGVGKGKTKKEAEQNAAHEALKK | 0.165
HMKDYKSSLQERVQAVGGGQLIYRVNREEGPDHSKTFYMDLFLGDRLIGTGSGRNKKQAEQQAAKEAIERG | 0.0469
HMKDYKTIFQELIQKKHKTSPIYKSYEYNDMFKAEVYVNDKSFADGIGKSKKEAETDAAKKALEKIEMA | 0.0809
HMKDYQGEISVVASGERIDVYLFNYFNLFSRTKIKNHIKNGNILVNENIISPSYILKQNDKIAFNLGAPY | -2.12
HMKDYQGNILIQSEGDRIDKFLFKYFNSFSRTKIKNHIINGNILVNDKNTIPAYVLKINDKISYDLSTSVK | -0.877
HMKEAITVIGGKNNITFDASAQAEIGIYSMDGVQIQKKTISDNERIDLPAGMYVVTVKTGQANVSKVVVV | -0.145
HMKEDSTIIERIISNLSSASLKTQKAFEYKLTDLMFRFSEGEYEWSSAMEVIREELLPFLNK | -0.645
HMKEETEMVTIPDVTGKPLTEAANLLREAKLDYLAESTGTSVTKQMPLPGAEVMVNTTVLLYTG | 0.241
HMKEEVMVPNVVGKELSAALLEMQVKELYPKLQLKYSNFVDDKGTVLEQSPPAGSIVKAGRRINLVVSRGA | 0.0708
HMKEIKAPNKINAHLIEEWRSQHPTELFPEEKVDLIYYKGEEYYFVIEEKNELGEIEEWYFAYDGGIDYV | -0.373
HMKEILTNESIIQFVKDKVSEEQIIYKINNSPIDFKLDVNSMVSLAKQNVSSTIIIAMENAMNN | -0.522
HMKELLQEMIMDILRAIASPNIDIKRKTLDLVLDLITPRNIDNVTGMLKTEVVKSQSENTSDVG | -0.572
HMKELTYSDFRKAYPDIQGNLFGMAERYITALDWTEVAAKVETDEELRKERDIFYLVKTYIRKYVQ | -0.695
HMKELVAGQTVRVHHSIGFGQTGTVTALNSLKTTLPNGLRTNTASILFQNNEKVVLPISNFDIIES | 0.403
HMKELVEDFASRISNARQSKGWNQSELAKRMAETVNVVKSAESGKSPTDSVIKKLERVLGIILM | 0.0723
HMKEQLITVYVSGAVARPGLYELPAGIRAQEAVEAAGGFTEAANHEKVNLAKKLKDGSQVNVPALK | -0.107
HMKEQYDLNDREQQFISLVANGLNNKEIAETLFLSEGTVRNYLSNLLDKLGLRDRTQLAIFFYQHL | -1.74
HMKERLLDPYKDFIVNYLQKYPYTPAAVMHDKLKESYPDFPKVDPKTIYNFVMLLRRDFNIPKV | -0.406
HMKETERKILQAVLGLPLKYRDVIHLFYYEEMSVKEIAEVLHRQESTVTSQLTRARGILKKNL | -0.377
HMKETLSDTVSRKLEDMITTQMKAGNRLPTEMVLAEMYSVGRSTIRESLKALSSKGLIVRKKDGTFVSDRV | 0.22
HMKEVKAPMPGMVLRVEVAPGQEVQEGDPLLVLEAMKMENNLKSPASGTIKSVHVEAGKAVEKGAVLVVF | -0.257
HMKEVKRDQVIEAARKLFHQFGFKKVSMDEIAKEAGVTKKTIYMYFESKEELLKYFIQEEISN | -0.44
HMKEVVKVTITPSEKLKSQYPDALVSIDGKFYDLGILNNPVEFYMDKDHKISIIWSTAELVESFRI | -0.248
